Numbering of substitutions follows the chain as printed. Numbers in names are those of the source.
T1: orthogonal hCD122 receptor (hoRb), hCD122 with H133D and Y134F (human, UniProt P14784 27-550)
T1 sequence: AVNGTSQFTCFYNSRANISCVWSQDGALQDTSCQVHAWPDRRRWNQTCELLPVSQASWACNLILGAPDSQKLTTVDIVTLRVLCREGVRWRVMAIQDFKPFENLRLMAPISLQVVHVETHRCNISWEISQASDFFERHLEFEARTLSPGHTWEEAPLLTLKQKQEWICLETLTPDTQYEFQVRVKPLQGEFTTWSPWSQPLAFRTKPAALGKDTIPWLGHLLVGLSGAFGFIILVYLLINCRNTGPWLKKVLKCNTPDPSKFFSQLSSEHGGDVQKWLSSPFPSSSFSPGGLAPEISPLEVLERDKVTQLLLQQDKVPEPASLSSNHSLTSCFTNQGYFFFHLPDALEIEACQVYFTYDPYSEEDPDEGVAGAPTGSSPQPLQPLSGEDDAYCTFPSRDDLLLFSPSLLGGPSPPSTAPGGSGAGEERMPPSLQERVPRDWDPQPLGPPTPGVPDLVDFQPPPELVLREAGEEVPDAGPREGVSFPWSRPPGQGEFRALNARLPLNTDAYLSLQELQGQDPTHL

B1: T3N, SQVLKA (ligand)
chain: APNSSSTKKTQLQLSQLLVLLKAILNGINNYKNPKLTRMLTFKFYMPKKATELKHLQCLEEELKPLEEVLNLAQSKNFHLRPRDLISNINVIVLELKGSETTFMCEYADETATIVEFLNRWITFCQSIISTLT
B2: T3P, SQVLKA (ligand)
chain: B1 chain with N3P
B3: T3R, SQVLKA (ligand)
chain: B1 chain with N3R
B4: T3K, SQVLKA (ligand)
chain: B1 chain with N3K
B5: T3D, SQVLKA (ligand)
chain: B1 chain with N3D

Target: T1, orthogonal hCD122 receptor (hoRb), …
Experiment: cell-based or functional assay
Wherever Relative Proliferation Fold Change 3F8 1:10 is given: reference of the scale not given here.
Wherever Relative Proliferation Fold Change 3F8 1:2 is given: reference of the scale not given here.
Wherever Relative Proliferation Fold Change 3F8 1:50 is given: reference of the scale not given here.
Wherever Relative Proliferation Fold Change NKL 1:10 is given: reference of the scale not given here.
Wherever Relative Proliferation Fold Change NKL 1:2 is given: reference of the scale not given here.
Wherever Relative Proliferation Fold Change NKL 1:50 is given: reference of the scale not given here.

Binder	NKL Ortho Proliferation Signal 1:2	NKL Ortho Proliferation Signal 1:10	NKL Ortho Proliferation Signal 1:50	Relative Proliferation Fold Change NKL 1:2	Relative Proliferation Fold Change NKL 1:10	Relative Proliferation Fold Change NKL 1:50
B1	62400	65700	31400	3.87 fold	3.32 fold	1.77 fold
B2	55400	56900	32700	6.03 fold	4.91 fold	2.9 fold
B3	58400	40700	19300	4.15 fold	2.9 fold	1.45 fold
B4	42900	35500	18400	3.47 fold	2.47 fold	1.38 fold
B5	49800	53900	27900	4.09 fold	4.03 fold	2.34 fold

Target: T1, orthogonal hCD122 receptor (hoRb), …
Experiment: cell-based or functional assay
Remark: another data set of the same source

Binder	3F8 Ortho Proliferation Signal 1:2	3F8 Ortho Proliferation Signal 1:10	3F8 Ortho Proliferation Signal 1:50	Relative Proliferation Fold Change 3F8 1:2	Relative Proliferation Fold Change 3F8 1:10	Relative Proliferation Fold Change 3F8 1:50
B1	34200 cts/min	27200 cts/min	9790 cts/min	2.07 fold	2.99 fold	4.1 fold
B2	36500 cts/min	39700 cts/min	19000 cts/min	33.9 fold	42.8 fold	38.5 fold
B3	28900 cts/min	16800 cts/min	5980 cts/min	8.43 fold	13.3 fold	5.3 fold
B4	28900 cts/min	15100 cts/min	7150 cts/min	50.9 fold	7.35 fold	9.24 fold
B5	33400 cts/min	35000 cts/min	13400 cts/min	35.1 fold	18.6 fold	19 fold

Source: patent publication US20210196796A1 (SYNTHEKINE, published 2021)
